{"source": "the supplement of paper PMC10567573", "parents": {"B1": {"name": "NET1 (parent)", "chain": "IKRTIRVLDVNNQSFREQEEPSNK"}}}
{"variants_of": "B1", "experiment": "protein stability index of a GFP-peptide fusion (GPS, HEK-293T) (PSI 1-6); higher = more stable", "conditions": "c terminus: a fixed tail appended"}
{"variant": "IKRTIRVLDVNNQRFREQEEPSNK", "note": "[S14R]", "protein stability index": 3.78}
{"variant": "IKRTIRVLDVNNQTFREQEEPSNK", "note": "[S14T]", "protein stability index": 3.52}
{"variant": "IKRTIRVLDVNNQVFREQEEPSNK", "note": "[S14V]", "protein stability index": 3.47}
{"variant": "IKRTIRVLDVNNQWFREQEEPSNK", "note": "[S14W]", "protein stability index": 3.01}
{"variant": "IKRTIRVLDVNNQYFREQEEPSNK", "note": "[S14Y]", "protein stability index": 2.6}
{"variant": "IKRTIRVLDVNNQSAREQEEPSNK", "note": "[F15A]", "protein stability index": 4.27}
{"variant": "IKRTIRVLDVNNQSCREQEEPSNK", "note": "[F15C]", "protein stability index": 4.18}
{"variant": "IKRTIRVLDVNNQSDREQEEPSNK", "note": "[F15D]", "protein stability index": 4.86}
{"variant": "IKRTIRVLDVNNQSEREQEEPSNK", "note": "[F15E]", "protein stability index": 4.79}
{"variant": "IKRTIRVLDVNNQSHREQEEPSNK", "note": "[F15H]", "protein stability index": 4.44}
{"variant": "IKRTIRVLDVNNQSIREQEEPSNK", "note": "[F15I]", "protein stability index": 3.96}
{"variant": "IKRTIRVLDVNNQSKREQEEPSNK", "note": "[F15K]", "protein stability index": 4.02}
{"variant": "IKRTIRVLDVNNQSLREQEEPSNK", "note": "[F15L]", "protein stability index": 3.4}
{"variant": "IKRTIRVLDVNNQSMREQEEPSNK", "note": "[F15M]", "protein stability index": 3.98}
{"variant": "IKRTIRVLDVNNQSNREQEEPSNK", "note": "[F15N]", "protein stability index": 3.82}
{"variant": "IKRTIRVLDVNNQSPREQEEPSNK", "note": "[F15P]", "protein stability index": 4.67}
{"variant": "IKRTIRVLDVNNQSQREQEEPSNK", "note": "[F15Q]", "protein stability index": 4.29}
{"variant": "IKRTIRVLDVNNQSRREQEEPSNK", "note": "[F15R]", "protein stability index": 4.79}
{"variant": "IKRTIRVLDVNNQSSREQEEPSNK", "note": "[F15S]", "protein stability index": 4.3}
{"variant": "IKRTIRVLDVNNQSTREQEEPSNK", "note": "[F15T]", "protein stability index": 4.09}
{"variant": "IKRTIRVLDVNNQSVREQEEPSNK", "note": "[F15V]", "protein stability index": 3.79}
{"variant": "IKRTIRVLDVNNQSWREQEEPSNK", "note": "[F15W]", "protein stability index": 3.6}
{"variant": "IKRTIRVLDVNNQSYREQEEPSNK", "note": "[F15Y]", "protein stability index": 3.79}
{"variant": "IKRTIRVLDVNNQSFAEQEEPSNK", "note": "[R16A]", "protein stability index": 4}
{"variant": "IKRTIRVLDVNNQSFCEQEEPSNK", "note": "[R16C]", "protein stability index": 3.3}
{"variant": "IKRTIRVLDVNNQSFDEQEEPSNK", "note": "[R16D]", "protein stability index": 4.47}
{"variant": "IKRTIRVLDVNNQSFEEQEEPSNK", "note": "[R16E]", "protein stability index": 3.94}
{"variant": "IKRTIRVLDVNNQSFFEQEEPSNK", "note": "[R16F]", "protein stability index": 3.47}
{"variant": "IKRTIRVLDVNNQSFGEQEEPSNK", "note": "[R16G]", "protein stability index": 3.94}
{"variant": "IKRTIRVLDVNNQSFHEQEEPSNK", "note": "[R16H]", "protein stability index": 3.69}
{"variant": "IKRTIRVLDVNNQSFIEQEEPSNK", "note": "[R16I]", "protein stability index": 3.83}
{"variant": "IKRTIRVLDVNNQSFKEQEEPSNK", "note": "[R16K]", "protein stability index": 4.21}
{"variant": "IKRTIRVLDVNNQSFLEQEEPSNK", "note": "[R16L]", "protein stability index": 3.35}
{"variant": "IKRTIRVLDVNNQSFMEQEEPSNK", "note": "[R16M]", "protein stability index": 3.41}
{"variant": "IKRTIRVLDVNNQSFNEQEEPSNK", "note": "[R16N]", "protein stability index": 4.57}
{"variant": "IKRTIRVLDVNNQSFPEQEEPSNK", "note": "[R16P]", "protein stability index": 3.42}
{"variant": "IKRTIRVLDVNNQSFQEQEEPSNK", "note": "[R16Q]", "protein stability index": 3.43}
{"variant": "IKRTIRVLDVNNQSFSEQEEPSNK", "note": "[R16S]", "protein stability index": 4.06}
{"variant": "IKRTIRVLDVNNQSFTEQEEPSNK", "note": "[R16T]", "protein stability index": 3.85}
{"variant": "IKRTIRVLDVNNQSFVEQEEPSNK", "note": "[R16V]", "protein stability index": 3.96}
{"variant": "IKRTIRVLDVNNQSFWEQEEPSNK", "note": "[R16W]", "protein stability index": 2.07}
{"variant": "IKRTIRVLDVNNQSFYEQEEPSNK", "note": "[R16Y]", "protein stability index": 3.4}
{"variant": "IKRTIRVLDVNNQSFRAQEEPSNK", "note": "[E17A]", "protein stability index": 3.6}
{"variant": "IKRTIRVLDVNNQSFRCQEEPSNK", "note": "[E17C]", "protein stability index": 3.27}
{"variant": "IKRTIRVLDVNNQSFRDQEEPSNK", "note": "[E17D]", "protein stability index": 3.25}
{"variant": "IKRTIRVLDVNNQSFRFQEEPSNK", "note": "[E17F]", "protein stability index": 2.8}
{"variant": "IKRTIRVLDVNNQSFRGQEEPSNK", "note": "[E17G]", "protein stability index": 3.29}
{"variant": "IKRTIRVLDVNNQSFRHQEEPSNK", "note": "[E17H]", "protein stability index": 3.59}
{"variant": "IKRTIRVLDVNNQSFRIQEEPSNK", "note": "[E17I]", "protein stability index": 3.22}
{"variant": "IKRTIRVLDVNNQSFRKQEEPSNK", "note": "[E17K]", "protein stability index": 3.11}
{"variant": "IKRTIRVLDVNNQSFRLQEEPSNK", "note": "[E17L]", "protein stability index": 3.15}
{"variant": "IKRTIRVLDVNNQSFRMQEEPSNK", "note": "[E17M]", "protein stability index": 2.92}
{"variant": "IKRTIRVLDVNNQSFRNQEEPSNK", "note": "[E17N]", "protein stability index": 3.16}
{"variant": "IKRTIRVLDVNNQSFRPQEEPSNK", "note": "[E17P]", "protein stability index": 2.92}
{"variant": "IKRTIRVLDVNNQSFRQQEEPSNK", "note": "[E17Q]", "protein stability index": 3.14}
{"variant": "IKRTIRVLDVNNQSFRRQEEPSNK", "note": "[E17R]", "protein stability index": 3.42}
{"variant": "IKRTIRVLDVNNQSFRSQEEPSNK", "note": "[E17S]", "protein stability index": 3.16}
{"variant": "IKRTIRVLDVNNQSFRTQEEPSNK", "note": "[E17T]", "protein stability index": 3.03}
{"variant": "IKRTIRVLDVNNQSFRVQEEPSNK", "note": "[E17V]", "protein stability index": 2.8}
{"variant": "IKRTIRVLDVNNQSFRWQEEPSNK", "note": "[E17W]", "protein stability index": 1.74}
{"variant": "IKRTIRVLDVNNQSFRYQEEPSNK", "note": "[E17Y]", "protein stability index": 2.44}
{"variant": "IKRTIRVLDVNNQSFREAEEPSNK", "note": "[Q18A]", "protein stability index": 2.27}
{"variant": "IKRTIRVLDVNNQSFRECEEPSNK", "note": "[Q18C]", "protein stability index": 3.09}
{"variant": "IKRTIRVLDVNNQSFREDEEPSNK", "note": "[Q18D]", "protein stability index": 4.15}
{"variant": "IKRTIRVLDVNNQSFREEEEPSNK", "note": "[Q18E]", "protein stability index": 3.76}
{"variant": "IKRTIRVLDVNNQSFREFEEPSNK", "note": "[Q18F]", "protein stability index": 2.52}
{"variant": "IKRTIRVLDVNNQSFREGEEPSNK", "note": "[Q18G]", "protein stability index": 3.59}
{"variant": "IKRTIRVLDVNNQSFREHEEPSNK", "note": "[Q18H]", "protein stability index": 3.7}
{"variant": "IKRTIRVLDVNNQSFREIEEPSNK", "note": "[Q18I]", "protein stability index": 3.1}
{"variant": "IKRTIRVLDVNNQSFREKEEPSNK", "note": "[Q18K]", "protein stability index": 2.91}
{"variant": "IKRTIRVLDVNNQSFRELEEPSNK", "note": "[Q18L]", "protein stability index": 3.06}
{"variant": "IKRTIRVLDVNNQSFREMEEPSNK", "note": "[Q18M]", "protein stability index": 3.07}
{"variant": "IKRTIRVLDVNNQSFRENEEPSNK", "note": "[Q18N]", "protein stability index": 3.52}
{"variant": "IKRTIRVLDVNNQSFREPEEPSNK", "note": "[Q18P]", "protein stability index": 3.49}
{"variant": "IKRTIRVLDVNNQSFREREEPSNK", "note": "[Q18R]", "protein stability index": 3.1}
{"variant": "IKRTIRVLDVNNQSFRESEEPSNK", "note": "[Q18S]", "protein stability index": 2.79}
{"variant": "IKRTIRVLDVNNQSFRETEEPSNK", "note": "[Q18T]", "protein stability index": 3.37}
{"variant": "IKRTIRVLDVNNQSFREVEEPSNK", "note": "[Q18V]", "protein stability index": 3.43}
{"variant": "IKRTIRVLDVNNQSFREYEEPSNK", "note": "[Q18Y]", "protein stability index": 2.66}
{"variant": "IKRTIRVLDVNNQSFREQAEPSNK", "note": "[E19A]", "protein stability index": 2.57}
{"variant": "IKRTIRVLDVNNQSFREQCEPSNK", "note": "[E19C]", "protein stability index": 2.74}
{"variant": "IKRTIRVLDVNNQSFREQDEPSNK", "note": "[E19D]", "protein stability index": 2.84}
{"variant": "IKRTIRVLDVNNQSFREQFEPSNK", "note": "[E19F]", "protein stability index": 2.15}
{"variant": "IKRTIRVLDVNNQSFREQGEPSNK", "note": "[E19G]", "protein stability index": 4.21}
{"variant": "IKRTIRVLDVNNQSFREQHEPSNK", "note": "[E19H]", "protein stability index": 2.9}
{"variant": "IKRTIRVLDVNNQSFREQIEPSNK", "note": "[E19I]", "protein stability index": 2.38}
{"variant": "IKRTIRVLDVNNQSFREQKEPSNK", "note": "[E19K]", "protein stability index": 3.88}
{"variant": "IKRTIRVLDVNNQSFREQLEPSNK", "note": "[E19L]", "protein stability index": 2.27}
{"variant": "IKRTIRVLDVNNQSFREQMEPSNK", "note": "[E19M]", "protein stability index": 3.15}
{"variant": "IKRTIRVLDVNNQSFREQNEPSNK", "note": "[E19N]", "protein stability index": 2.89}
{"variant": "IKRTIRVLDVNNQSFREQPEPSNK", "note": "[E19P]", "protein stability index": 3.44}
{"variant": "IKRTIRVLDVNNQSFREQQEPSNK", "note": "[E19Q]", "protein stability index": 2.76}
{"variant": "IKRTIRVLDVNNQSFREQREPSNK", "note": "[E19R]", "protein stability index": 2.6}
{"variant": "IKRTIRVLDVNNQSFREQSEPSNK", "note": "[E19S]", "protein stability index": 2.44}
